These results are taken from EP4613280A1 (Plantibodies, dated 2025).

This test addresses T1, murine PD-1 receptor (mouse, UniProt Q02242 25-288).
T1 construct: Endogenous protein in tissue lysates, detected as a 50 kDa band on a western blot; also called mouse PD-1; mouse PD-1 receptor
T1 sequence (looked up): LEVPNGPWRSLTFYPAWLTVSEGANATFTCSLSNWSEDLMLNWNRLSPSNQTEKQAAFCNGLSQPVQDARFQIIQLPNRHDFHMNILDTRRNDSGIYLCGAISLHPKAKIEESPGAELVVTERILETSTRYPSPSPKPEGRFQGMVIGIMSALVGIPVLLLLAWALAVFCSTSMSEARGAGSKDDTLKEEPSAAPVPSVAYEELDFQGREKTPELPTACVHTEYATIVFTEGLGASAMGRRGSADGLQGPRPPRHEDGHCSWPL
Kind of test: western blot of mouse liver and lung lysates probed with nivolumab.

B1: human recombinant Nivolumab (Thermofischer MA5-41974) (antibody, human IgG4 S228P, kappa, V domains shown)
VH: QVQLVESGGGVVQPGRSLRLDCKASGITFSNSGMHWVRQAPGKGLEWVAVIWYDGSKRYYADSVKGRFTISRDNSKNTLFLQMNSLRAEDTAVYYCATNDDYWGQGTLVTVSS
VL: EIVLTQSPATLSLSPGERATLSCRASQSVSSYLAWYQQKPGQAPRLLIYDASNRATGIPARFSGSGSGTDFTLTISSLEPEDFAVYYCQQSSNWPRTFGQGTKVEIKR
notes: Bought reagent, described as a fully humanized monoclonal antibody produced in mammalian cells such as HEK293; also called human Nivolumab; mammalian cell produced nivolumab (anti-PD1)
Take B1: the binding result is “binds”.
